Assay results taken from US20190170753A1 (ICAHN SCHOOL OF MEDICINE AT MOUNT SINAI, published 2019).
Where no end group is shown, it is not given here.

Columns and labels:
[1] = molecular target: T1, Mut6T110S biotin labeled HCV core peptide (hepatitis C virus, biotin labeled (position not given)); assay: capture EIA; Ab 15.625 ng/mL; bt-peptide 500 ng/mL
[2] = molecular target: T2, Mut1T110N biotin labeled HCV core peptide (hepatitis C virus, biotin labeled (position not given)); assay: capture EIA; Ab 15.625 ng/mL; bt-peptide 500 ng/mL
T2 peptide: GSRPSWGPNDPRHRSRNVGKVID

[3] = molecular target: T3, WT1STHV biotin labeled HCV core peptide (hepatitis C virus, biotin labeled (position not given)); assay: capture EIA; Ab 15.625 ng/mL; bt-peptide 500 ng/mL
T3 peptide: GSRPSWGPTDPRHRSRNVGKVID

[4] = molecular target: T4, C113T109N biotin labeled HCV core peptide (hepatitis C virus, also: biotin labeled, position not given here); assay: capture EIA; Ab 15.625 ng/mL; bt-peptide 500 ng/mL
T4 construct: also called C113T110N
T4 peptide: RGSRPSWGPND

[5] = molecular target: T5, 92-133 biotin labeled HCV core peptide (hepatitis C virus, UniProt Q9WMX2 92-133, chain 1: biotin label (bt-pep). Its position and any spacer are not visible in the passages shown.); assay: capture EIA; Ab 15.625 ng/mL; bt-peptide 500 ng/mL
T5 construct: Only the label 92-133 is printed
T5 peptide: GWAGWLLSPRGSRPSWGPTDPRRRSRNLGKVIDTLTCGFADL
Method: (§1) Assay wells were coated with sheep anti-mouse IgG Fc specific antibody and incubated overnight. The coating solution was then removed; the wells blocked using BSA/tween in PBS and then washed with dH2O. […] Next, biotin labeled peptides (diluted to 500 ng/mL in block) were added, the plates incubated for 10 minutes while shaking at 700 rpm and then washed. Peroxidase conjugated streptavidin (diluted to 200 ng/mL in block) was then added to all assay wells, incubated for 20 minutes while shaking at 700 rpm and then washed. Finally, color was developed using OPD and signal quenched using 1N H₂SO₄. Signal was read at 492 nm.

[6] = molecular target: T6, C113WT biotin labeled HCV core peptide (hepatitis C virus, also: biotin labeled, position not given here); assay: capture EIA; Ab 15.625 ng/mL; bt-peptide 500 ng/mL
T6 peptide: RGSRPSWGPTD

[7] = molecular target: T4, C113T109N biotin labeled HCV core …; assay: capture EIA; Ab 31.25 ng/mL; bt-peptide 500 ng/mL
Method: as §1

[8] = molecular target: T1, Mut6T110S biotin labeled HCV core …; assay: capture EIA; Ab 250 ng/mL; bt-peptide 500 ng/mL
Method: as §1

[9] = molecular target: T2, Mut1T110N biotin labeled HCV core …; assay: capture EIA; Ab 250 ng/mL; bt-peptide 500 ng/mL
Method: as §1

[10] = molecular target: T3, WT1STHV biotin labeled HCV core peptide; assay: capture EIA; Ab 250 ng/mL; bt-peptide 500 ng/mL
Method: as §1

[11] = molecular target: T4, C113T109N biotin labeled HCV core …; assay: capture EIA; Ab 250 ng/mL; bt-peptide 500 ng/mL
Method: as §1

[12] = molecular target: T5, 92-133 biotin labeled HCV core peptide; assay: capture EIA; Ab 250 ng/mL; bt-peptide 500 ng/mL
Method: as §1

[13] = molecular target: T6, C113WT biotin labeled HCV core peptide; assay: capture EIA; Ab 250 ng/mL; bt-peptide 500 ng/mL
Method: as §1

[14] = molecular target: T4, C113T109N biotin labeled HCV core …; assay: capture EIA with biotin peptide
[15] = molecular target: T6, C113WT biotin labeled HCV core peptide; assay: capture EIA with biotin peptide
[16] = molecular target: T1, Mut6T110S biotin labeled HCV core …; assay: capture EIA; Ab 7.813 ng/mL; bt-peptide 500 ng/mL
Method: as §1

[17] = molecular target: T2, Mut1T110N biotin labeled HCV core …; assay: capture EIA; Ab 7.813 ng/mL; bt-peptide 500 ng/mL
Method: as §1

[18] = molecular target: T3, WT1STHV biotin labeled HCV core peptide; assay: capture EIA; Ab 7.813 ng/mL; bt-peptide 500 ng/mL
Method: as §1

[19] = molecular target: T4, C113T109N biotin labeled HCV core …; assay: capture EIA; Ab 7.813 ng/mL; bt-peptide 500 ng/mL
Method: as §1

[20] = molecular target: T5, 92-133 biotin labeled HCV core peptide; assay: capture EIA; Ab 7.813 ng/mL; bt-peptide 500 ng/mL
Method: as §1

[21] = molecular target: T6, C113WT biotin labeled HCV core peptide; assay: capture EIA; Ab 7.813 ng/mL; bt-peptide 500 ng/mL
Method: as §1

[22] = molecular target: T1, Mut6T110S biotin labeled HCV core …; assay: capture EIA; Ab 125 ng/mL; bt-peptide 500 ng/mL
Method: as §1

[23] = molecular target: T2, Mut1T110N biotin labeled HCV core …; assay: capture EIA; Ab 125 ng/mL; bt-peptide 500 ng/mL
Method: as §1

[24] = molecular target: T3, WT1STHV biotin labeled HCV core peptide; assay: capture EIA; Ab 125 ng/mL; bt-peptide 500 ng/mL
Method: as §1

[25] = molecular target: T4, C113T109N biotin labeled HCV core …; assay: capture EIA; Ab 125 ng/mL; bt-peptide 500 ng/mL
Method: as §1

[26] = molecular target: T5, 92-133 biotin labeled HCV core peptide; assay: capture EIA; Ab 125 ng/mL; bt-peptide 500 ng/mL
Method: as §1

[27] = molecular target: T6, C113WT biotin labeled HCV core peptide; assay: capture EIA; Ab 125 ng/mL; bt-peptide 500 ng/mL
Method: as §1

B1: Neo4 mouse monoclonal antibody (antibody, V domains shown)
VH: QIQLKESGPAVIKPSQSLSLTCIVSGFSITSSVYCWQWIRQPPGKGLEWMGRICYDGSVDYSPSITSRGTISRDTSLNKVFFQLSSVTNEDTAMYYCSRENHIDYYDTTYPSFDVWGAGTTVTVSS
VL: DIVLTQSPASLIVSLGQRATISCRASKSVNEYGYTYMHWYQQKPGLPPKLLIYLASNLDSGVPARFSGSGSGTDFTLNIHPVEEEDAATYYCQHSRELPYTFGGGTKLEIKR
notes: Mouse hybridoma antibody, isotype IgG1, purified with Protein G; also called HCV Neo4
For B1, the “signal at 492 nm” value [1] was 0.25 A492, the “signal at 492 nm” value [2] was 0.0771 A492 and the “signal at 492 nm” value [3] was 1.42 A492. The “signal at 492 nm” value [4] was 0.0736 A492, the “signal at 492 nm” value [5] was 0.806 A492 and the “signal at 492 nm” value [6] was 0.0697 A492. For the same binder, the “signal at 492 nm” value [7] was 0.0815 A492, the “signal at 492 nm” value [8] was 1.15 A492 and the “signal at 492 nm” value [9] was 0.089 A492. The “signal at 492 nm” value [10] was 1.99 A492, the “signal at 492 nm” value [11] was 0.111 A492 and the “signal at 492 nm” value [12] was 1.4 A492. The “signal at 492 nm” value [13] was 0.0607 A492, the binding result [14] was “no binding” and the binding result [15] was “no binding”. For the same binder, the “signal at 492 nm” value [16] was 0.132 A492, the “signal at 492 nm” value [17] was 0.0729 A492 and the “signal at 492 nm” value [18] was 1.04 A492. For the same binder, the “signal at 492 nm” value [19] was 0.0751 A492, the “signal at 492 nm” value [20] was 0.45 A492 and the “signal at 492 nm” value [21] was 0.0731 A492. For the same binder, the “signal at 492 nm” value [22] was 1.27 A492, the “signal at 492 nm” value [23] was 0.204 A492 and the “signal at 492 nm” value [24] was 1.93 A492. The “signal at 492 nm” value [25] was 0.0858 A492, the “signal at 492 nm” value [26] was 1.31 A492 and the “signal at 492 nm” value [27] was 0.0599 A492.
